# Assay results from paper PMC7308506.
# How the values were obtained:
# [1] = molecular target: kallikrein
# [2] = molecular target: activated factor X
# [3] = molecular target: activated factor XII
# [4] = molecular target: thrombin (UniProt P00734)
# [5] = molecular target: LCTX-F2 (Lycosa singoriensis); test: SPR; Biacore 3000; LCTX-F2 amine-coupled to CM5 (2,000 RU); FXIIa, kallikrein, FXa and thrombin as analytes, 0-100 ug/ml in twofold dilutions; 25 C; HBS-EP (10 mM HEPES pH 7.4, 3 mM EDTA, 150 mM NaCl, 0.05% P20); 30 ul/min, 120 s association, 300 s dissociation
Substance,Kd [5] [nM],further results
LCTX-F2 (peptide),,"increase of the activity of kallikrein (chromogenic substrate) at 3 µM LCTX-F2 [1]: 33.3%; increase of the activity of FXa (chromogenic substrate) at 3 µM LCTX-F2 [2]: 34.8%; increase of the relative protease activity of FXIIa (chromogenic substrate) at 0.03, 0.3 and 3 µM LCTX-F2: 1.2%, 44.0%, 96.0% [3]: 96%; increase of the activity of thrombin (chromogenic substrate) at 3 µM LCTX-F2 [4]: 36.9%"
activated factor X (enzyme),180,
activated factor XII (enzyme),7200,
kallikrein (enzyme),4600,
thrombin (from UniProt P00734 364-622; P00734 364-622) (enzyme),700,
